In patent US20190321456A1 (NATIONAL HEALTH RESEARCH INSTITUTES, published 2019):

T1: recombinant ovalbumin (OVA) (Gallus gallus (Chicken), UniProt P01012 1-386)
T1 sequence: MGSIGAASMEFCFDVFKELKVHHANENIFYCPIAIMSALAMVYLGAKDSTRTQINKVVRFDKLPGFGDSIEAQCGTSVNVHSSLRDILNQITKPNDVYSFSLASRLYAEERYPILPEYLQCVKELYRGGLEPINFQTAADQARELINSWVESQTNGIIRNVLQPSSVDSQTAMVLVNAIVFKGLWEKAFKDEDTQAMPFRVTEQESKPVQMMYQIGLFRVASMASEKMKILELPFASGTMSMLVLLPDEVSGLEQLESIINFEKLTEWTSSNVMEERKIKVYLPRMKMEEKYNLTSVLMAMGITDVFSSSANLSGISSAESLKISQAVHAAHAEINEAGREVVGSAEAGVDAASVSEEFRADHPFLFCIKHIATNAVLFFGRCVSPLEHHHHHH

B1: biotin-conjugated recombinant FcγRI (receptor)
chain: QVDTTKAVITLQPPWVSVFQEETVTLHCEVLHLPGSSSTQWFLNGTATQTSTPSYRITSASVNDSGEYRCQRGLSGRSDPIQLEIHRGWLLLQVSSRVFTEGEPLALRCHAWKDKLVYNVLYYRNGKAFKFFHWNSNLTILKTNISHNGTYHCSGMGKHRYTSAGISVTVKELFPAPVLNASVTSPLLEGNLVTLSCETKLLLQRPGLQLYFSFYMGSKTLRGRNTSSEYQILTARREDSGLYWCEAATEDGNVLKRSPELELQVLGLQLPTP
modifications: biotin-conjugated
B2: biotin-conjugated recombinant FcγRIIa-H131 (receptor)
chain: AAPPKAVLKLEPPWINVLQEDSVTLTCQGARSPESDSIQWFHNGNLIPTHTQPSYRFKANNNDSGEYTCQTGQTSLSDPVHLTVLSEWLVLQTPHLEFQEGETIMLRCHSWKDKPLVKVTFFQNGKSQKFSHLDPTFSIPQANHSHSGDYHCTGNIGYTLFSSKPVTITVQVPSMGSSSPMGI
modifications: biotin-conjugated
notes: The H131 allotype name implies the human receptor
B3: biotin-conjugated recombinant FcγRIIb (receptor)
chain: APPKAVLKLEPQWINVLQEDSVTLTCRGTHSPESDSIQWFHNGNLIPTHTQPSYRFKANNNDSGEYTCQTGQTSLSDPVHLTVLSEWLVLQTPHLEFQEGETIVLRCHSWKDKPLVKVTFFQNGKSKKFSRSDPNFSIPQANHSHSGDYHCTGNIGYTLYSSKPVTITVQAP
modifications: biotin-conjugated
B4: OVA-FLIPr-like fusion protein (other)
chain: MGSIGAASMEFCFDVFKELKVHHANENIFYCPIAIMSALAMVYLGAKDSTRTQINKVVRFDKLPGFGDSIEAQCGTSVNVHSSLRDILNQITKPNDVYSFSLASRLYAEERYPILPEYLQCVKELYRGGLEPINFQTAADQARELINSWVESQTNGIIRNVLQPSSVDSQTAMVLVNAIVFKGLWEKAFKDEDTQAMPFRVTEQESKPVQMMYQIGLFRVASMASEKMKILELPFASGTMSMLVLLPDEVSGLEQLESIINFEKLTEWTSSNVMEERKIKVYLPRMKMEEKYNLTSVLMAMGITDVFSSSANLSGISSAESLKISQAVHAAHAEINEAGREVVGSAEAGVDAASVSEEFRADHPFLFCIKHIATNAVLFFGRCVSPGGGGSGGGGSGGGGSFFSYEWKGLEIAKNLADQAKKDDERADKLIKEADEKNEHYKGKTVEDLYVIAKKMGKGNTIAVVKIKDGGKNGYYTFDITRPLEEHRKNIPVVKNGEIDSITWYLEHHHHHH
notes: Expressed in E. coli from pET-22b(+) and purified by IMAC; also called recombinant OVA-FLIPr-like fusion protein
B5: OVA-FLIPr fusion protein (other)
chain: MGSIGAASMEFCFDVFKELKVHHANENIFYCPIAIMSALAMVYLGAKDSTRTQINKVVRFDKLPGFGDSIEAQCGTSVNVHSSLRDILNQITKPNDVYSFSLASRLYAEERYPILPEYLQCVKELYRGGLEPINFQTAADQARELINSWVESQTNGIIRNVLQPSSVDSQTAMVLVNAIVFKGLWEKAFKDEDTQAMPFRVTEQESKPVQMMYQIGLFRVASMASEKMKILELPFASGTMSMLVLLPDEVSGLEQLESIINFEKLTEWTSSNVMEERKIKVYLPRMKMEEKYNLTSVLMAMGITDVFSSSANLSGISSAESLKISQAVHAAHAEINEAGREVVGSAEAGVDAASVSEEFRADHPFLFCIKHIATNAVLFFGRCVSPGGGGSGGGGSGGGGSFFSYEWKGLEIAKNLADQAKKDDERIDKLMKESDKNLTPYKAETVNDLYLIVKKLSQGDVKKAVVRIKDGGPRDYYTFDLTRPLEENRKNIKVVKNGEIDSIYWDLEHHHHHH
notes: Expressed in E. coli from pET-22b(+) and purified by IMAC; also called recombinant OVA-FLIPr fusion protein

Tests used:
[1] = biological target: T1, recombinant ovalbumin (OVA); experiment: ELISA, plate coated with recombinant protein at 1 µg/mL, serial dilution of biotin-conjugated FcγR, streptavidin-HRP
[2] = biological target: T2, biotin-conjugated recombinant FcγRIIIa-V158 (UniProt P08637 17-208); experiment: ELISA, coated fusion protein, biotin-conjugated FcγR in solution
T2 construct: The V158 allotype name implies the human receptor

[3] = biological target: B2; experiment: as above
[4] = biological target: T3, biotin-conjugated recombinant FcγRIIIa-F158 (UniProt P08637 17-208, biotin-conjugated); experiment: as above
T3 construct: The F158 allotype name implies the human receptor
T3 sequence (P08637 17-208 limits assumed): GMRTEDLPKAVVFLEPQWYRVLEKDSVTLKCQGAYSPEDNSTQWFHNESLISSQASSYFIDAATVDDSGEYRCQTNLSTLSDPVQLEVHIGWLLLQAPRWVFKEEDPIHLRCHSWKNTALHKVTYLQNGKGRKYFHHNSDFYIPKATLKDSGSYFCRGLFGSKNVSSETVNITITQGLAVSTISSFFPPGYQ

T2 sequence (P08637 17-208 F176V limits assumed): as the sequence (P08637 17-208 limits assumed) above, with F160V counted along it

Binder | binding result [1] | binding result [2] | binding result [3] | binding result [4]
B1 | no binding |  |  | 
B2 | no binding |  |  | 
B3 | no binding |  |  | 
B4 |  | binds | binds | binds
B5 |  | binds | binds | binds
